Measurements: patent US12357802B2, “Self-actuating articles” (priority 2017, dated 2025)

Tested on: Micrococcus lysodeikticus cells
Experiment: Lysozyme enzyme activity assay of dissolved micropost tips
Format: biochemical
Details: micropost tips 80% lysozyme and 20% PEO 200 k, vs uncompressed powder
Method: To measure the activity of lysozyme, the assay provided by Sigma Aldrich was used which measures the amount of lysed Micrococcus lysodeikticus cells. Briefly, a 200 unit/mL Lysozyme solution in 50 mM Potassium Phosphate Buffer was added to a 0.015% [w/v]Micrococcus lysodeikticus cell suspension in the same buffer. The decrease was recorded in A450 over 5 minutes. Nine micropost tips were fabricated from 80% lysozyme and 20% PEO 200 k and dissolved sets of three micropost tips together. Triplicate assays were performed on each dissolved solution for a total of nine tests and the results were compared to the results of a solution made with lysozyme that was not compressed into a micropost tip.

## lysozyme
  enzymatic activity after the manufacturing process: maintain their activity
